Series [1] is described as follows: Enzyme half-life at 50° C.
For series [2] the following is noted: cited from earlier work.
Series [3] is described as follows: ALS activity (pyruvate consumption). The format is biochemical. The following applies: natural substrate. As for the experimental part:
(§1) (J. Mol. Catal. B-Enzym. 2009, 61, 30-35).
ALS activity: ALS activity was determined by following pyruvate consumption at 50° C. Reaction mixtures contained 25 mM HEPES (pH 7), 0.1 mM thiamine-pyrophosphate, 2.5 mM MgCl2, 15 mM sodium pyruvate. Pyruvate concentration in the samples was determined via lactate dehydrogenase as described elsewhere. (Biochem. J. 2007, 403, 421-430)

Series [4] is described as follows: Isobutanol tolerance of enzymes (I50). The format is biochemical.
Series [5] in a line: Ethanol tolerance of enzymes (E50). Type of series: biochemical.
A short description of series [6]: ADH activity with acetaldehyde as substrate. The format is biochemical.
Description: as §1

Series [7] is described as follows: ADH activity, NADH-dependent reduction of isobutyraldehyde. Type of series: biochemical. The following applies: substrate isobutyraldehyde.
Description: as §1

Series [8] is described as follows: KDC activity (decarboxylation of 2-ketoisovalerate). Type of series: biochemical. The following applies: natural substrate. Here is the method:
as §1
KDC activity: KDC activity was assayed by following the decarboxylation of 2-ketoisovalerate to isobutyraldehyde at 50° C. and 340 nm. Assay mixture contained 50 mM HEPES (pH 7), 0.1 mM thiamine-pyrophosphate, 2.5 mM MgCl2 and 60 mM 2-ketoisovalerate. Decarboxylation rate was calculated using the molar extinction coefficient of 2-ketoisovalerate (s=0.017 L mmol-1 cm-1). (J. Mol. Catal. B-Enzym. 2009, 61, 30-35)

Series [9] in a line: GDH activity assay (oxidation of D-glucose to gluconate, NAD reduction). The format is biochemical. The following applies: natural substrate. As for the experimental part:
as §1
GDH activity: GDH activity was assayed at 50° C. by oxidizing D-glucose to gluconate, whereby the coenzyme NAD is reduced to NADH. Assay mixture contained 50 mM HEPES (pH 7), 2 mM NAD and 50 mM D-glucose. (J. Biol. Chem. 2006, 281, 14796-14804)

Series [10] in a line: Enzyme temperature optimum. The format is biochemical.
The nature of a further series: Thermal tolerance of PDC. Type of series: physicochemical.
Series [11] is described as follows: PDC activity for natural substrate. Type of series: biochemical.
Description: as §1

A short description of series [12]: KARI activity (NADH consumption, acetolactate to 2,3-dihydroxy isovalerate). The following applies: natural substrate. The format is biochemical. As for the experimental part: as §1
KARL activity: KARI activity was assayed by following the NADH consumption connected to the conversion of acetolactate to 2,3-dihydroxy isovalerate at 50° C. Assay mixture contained 5 mM acetolactate, 0.3 mM NADH, 10 mM MgCl2 and 50 mM HEPES, pH 7.

Setting [13] is: Table 2, value with literature reference.

Read-outs that look alike come from different tables or passages of the source. Where only a bound is given, the exact number is not on record here.

B1: ALS: Acetolactate synthase ALS (EC 2.2.1.6), Bacillus subtilis, Seq ID 12 (protein, listed as Bacillus subtilis)
chain: MLTKATKEQKSLVKNRGAELVVDCLVEQGVTHVFGIPGAKIDAVFDALQDKGPEIIVARHEQNAAFMAQAVGRLTGKPGVVLVTSGPGASNLATGLLTANTEGDPVVALAGNVIRADRLKRTHQSLDNAALFQPITKYSVEVQDVKNIPEAVTNAFRIASAGQAGAAFVSFPQDVVNEVTNTKNVRAVAAPKLGPAADDAISAAIAKIQTAKLPVVLVGMKGGRPEAIKAVRKLLKKVQLPFVETYQAAGTLSRDLEDQYFGRIGLFRNQPGDLLLEQADVVLTIGYDPIEYDPKFWNINGDRTIIHLDEIIADIDHAYQPDLELIGDIPSTINHIEHDAVKVEFAEREQKILSDLKQYMHEGEQVPADWKSDRAHPLEIVKELRNAVDDHVTVTCDIGSHAIWMSRYFRSYEPLTLMISNGMQTLGVALPWAIGASLVKPGEKVVSVSGDGGFLFSAMELETAVRLKAPIVHIVWNDSTYDMVAFQQLKKYNRTSAVDFGNIDIVKYAESFGATGLRVESPDQLADVLRQGMNAEGPVIIDVPVDYSDNINLASDKLPKEFGELMKTKALL
With B1, the “Half-life, 50° C.” value in series [1] came to 12 h. In addition, the T-Optimum in [2] (setting [13]) was 37^[4] ° C. For the same molecule, the “Activity, 50° C.” value in [3] was 30 U/mg. In series [4] (50° C.), the “I50: Isobutanol concentration which causes loss of 50% activity” value is reported as 4 (50° C.) % v/v.

B2: ADH: Alcohol dehydrogenase ADH (EC 1.1.1.1), Geobacillus stearothermophilus, Seq ID 18 (protein)
chain: MKAAVVEQFKEPLKIKEVEKPTISYGEVLVRIKACGVCHTDLHAAHGDWPVKPKLPLIPGHEGVGIVEEVGPGVTHLKVGDRVGIPWLYSACGHCDYCLSGQETLCEHQKNAGYSVDGGYAEYCRAAADYVVKIPDNLSFEEAAPIFCAGVTTYKALKVTGAKPGEWVAIYGIGGLGHVAVQYAKAMGLNVVAVDIGDEKLELAKELGADLVVNPLKEDAAKFMKEKVGGVHAAVVTAVSKPAFQSAYNSIRRGGACVLVGLPPEEMPIPIFDTVLNGIKIIGSIVGTRKDLQEALQFAAEGKVKTIIEVQPLEKINEVFDRMLKGQINGRVVLTLEDKLEHHHHHH
modifications: Alcohol dehydrogenase (EC 1.1.1.1), Geobacillus stearothermophilus Protein sequence including C-terminal His-Tag
In the case of B2, the “Half-life, 50° C.” value in series [1] was above 24 h. Further, the “E50: Ethanol concentration which causes loss of 50% activity” value in series [5] (50° C.) is on record as 25 (50° C.) % v/v. Moreover, the T-Optimum is >60^[3] 50 °C in [2] (Table 1, value with literature reference) and >60^[3] ° C in series [2] (setting [13]). In addition, the “Activity, 50° C. (ADH for acetaldehyde)” value in series [6] turned out to be 210 U/mg. Further, the “Activity, 50° C. (ADH for isobutyraldehyde)” value in [7] came out at 83 U/mg. Further, the “I50: Isobutanol concentration which causes loss of 50% activity” value in [4] (50° C.) is 5 (50° C.) % v/v.

B3: KDC: Branched-chain-2-oxo acid decarboxylase KDC (EC 4.1.1.72), Lactococcus lactis, Seq ID 16 (protein)
chain: MGSSHHHHHHSSGLVPRGSHMASMYTVGDYLLDRLHELGIEEIFGVPGDYNLQFLDQIISREDMKWIGNANELNASYMADGYARTKKAAAFLTTFGVGELSAINGLAGSYAENLPVVEIVGSPTSKVQNDGKFVHHTLADGDFKHFMKMHEPVTAARTLLTAENATYEIDRVLSQLLKERKPVYINLPVDVAAAKAEKPALSLEKESSTTNTTEQVILSKIEESLKNAQKPVVIAGHEVISFGLEKTVTQFVSETKLPITTLNFGKSAVDESLPSFLGIYNGKLSEISLKNFVESADFILMLGVKLTDSSTGAFTHHLDENKMISLNIDEGIIFNKVVEDFDFRAVVSSLSELKGIEYEGQYIDKQYEEFIPSSAPLSQDRLWQAVESLTQSNETIVAEQGTSFFGASTIFLKSNSRFIGQPLWGSIGYTFPAALGSQIADKESRHLLFIGDGSLQLTVQELGLSIREKLNPICFIINNDGYTVEREIHGPTQSYNDIPMWNYSKLPETFGATEDRVVSKIVRTENEFVSVMKEAQADVNRMYWIELVLEKEDAPKLLKKMGKLFAEQNK
modifications: Branched-chain ketoacid decarboxylase (EC 4.1.1.72), Lactococcus lactis Protein sequence including N-terminal His-Tag
As to B3, the “Activity, 50° C.” value in [8] amounted to 150 U/mg. Besides, in [1], the “Half-life, 50° C.” value is given as above 24 h. Also, in series [2] (setting [13]), the T-Optimum was 50^[5] ° C. The “I50: Isobutanol concentration which causes loss of 50% activity” value in series [4] (45° C.) was 4 (45° C.) % v/v.

B4: GDH: Glucose dehydrogenase GDH (EC 1.1.1.47), Sulfolobus solfataricus, NP 344316.1, Seq ID 02 (protein)
chain: MKAIIVKPPNAGVQVKDVDEKKLDSYGKIKIRTIYNGICGTDREIVNGKLTLSTLPKGKDFLVLGHEAIGVVEESYHGFSQGDLVMPVNRRGCGICRNCLVGRPDFCETGEFGEAGIHKMDGFMREWWYDDPKYLVKIPKSIEDIGILAQPLADIEKSIEEILEVQKRVPVWTCDDGTLNCRKVLVVGTGPIGVLFTLLFRTYGLEVWMANRREPTEVEQTVIEETKTNYYNSSNGYDKLKDSVGKFDVIIDATGADVNILGNVIPLLGRNGVLGLFGFSTSGSVPLDYKTLQEIVHTNKTIIGLVNGQKPHFQQAVVHLASWKTLYPKAAKMLITKTVSINDEKELLKVLREKEHGEIKIRILWESGRPVLGSSHHHHHH
modifications: Glucose dehydrogenase (EC 1.1.1.47), Sulfolobus solfataricus Protein sequence including C-terminal His-Tag
Regarding B4, in series [9], the “Activity, 50° C.” value amounted to 15 U/mg. Besides, the “E50: Ethanol concentration which causes loss of 50% activity” value in series [5] (45° C.) was 30 (45° C.) % v/v. For the same molecule, the T-Optimum is 70 50 °C in series [10] (Table 1) and 70 °C in series [10] (Table 2). The “I50: Isobutanol concentration which causes loss of 50% activity” value in [4] (45° C.) is given as 9 (45° C.) % v/v.

B5: PDC: Pyruvate decarboxylase PDC (EC 4.1.1.1), Zymomonas mobilis, Seq ID 20 (protein)
chain: MSYTVGTYLAERLVQIGLKHHFAVAGDYNLVLLDNLLLNKNMEQVYCCNELNCGFSAEGYARAKGAAAAVVTYSVGALSAFDAIGGAYAENLPVILISGAPNNNDHAAGHVLHHALGKTDYHYQLEMAKNITAAAEAIYTPEEAPAKIDHVIKTALREKKPVYLEIACNIASMPCAAPGPASALFNDEASDEASLNAAVEETLKFIANRDKVAVLVGSKLRAAGAEEAAVKFADALGGAVATMAAAKSFFPEENPHYIGTSWGEVSYPGVEKTMKEADAVIALAPVFNDYSTTGWTDIPDPKKLVLAEPRSVVVNGIRFPSVHLKDYLTRLAQKVSKKTGALDFFKSLNAGELKKAAPADPSAPLVNAEIARQVEALLTPNTTVIAETGDSWFNAQRMKLPNGARVEYEMQWGHIGWSVPAAFGYAVGAPERRNILMVGDGSFQLTAQEVAQMVRLKLPVIIFLINNYGYTIEVMIHDGPYNNIKNWDYAGLMEVFNGNGGYDSGAGKGLKAKTGGELAEAIKVALANTDGPTLIECFIGREDCTEELVKWGKRVAAANSRKPVNKLLSGRPVLGSSHHHHHH
modifications: Pyruvate decarboxylase (EC 4.1.1.1), Zymomonas mobilis Protein sequence including C-terminal His-Tag
For the molecule B5, the “Half-life, 50° C.” value in [1] is given as 22 h. The “thermostable up to” value in “Thermal tolerance of PDC” was “up to 50 °C”. The “E50: Ethanol concentration which causes loss of 50% activity” value in series [5] (50° C.) is given as 20 (50° C.) % v/v. Also, in series [11], the “Activity, 50° C.” value was 64 U/mg. Besides, in series [10] (Table 1), the T-Optimum was 50 50 °C. Moreover, in [4] (45° C.), the “I50: Isobutanol concentration which causes loss of 50% activity” value is reported as 8 (45° C.) % v/v.

B6: KARI: Ketol-acid reductoisomerase KARI (EC 1.1.1.86), Meiothermus ruber, Seq ID 14 (protein)
chain: MKIYYDQDADIGFIKDKTVAILGFGSQGHAHALNLRDSGIKVVVGLRPGSRNEEKARKAGLEVLPVGEAVRRADVVMILLPDETQGAVYKAEVEPNLKEGAALAFAHGFNIHFGQIKPRRDLDVWMVAPKGPGHLVRSEYEKGSGVPSLVAVYQDASGSAFPTALAYAKANGGTRAGTIATTFKDETETDLFGEQTVLCGGLTQLIAAGFETLVEAGYPPEMAYFECLHEVKLIVDLIYESGFAGMRYSISNTAEYGDYTRGPMVINREETKARMREVLRQIQQGEFAREWMLENVVGQPTLNANRNYWKDHPIEQVGPKLRAMMPFLKSRFTKEEVGSSGRPVLGSSHHHHHH
modifications: Ketolacid reductoisomerase (EC 1.1.1.86), Meiothermus ruber Protein sequence including C-terminal His-Tag
In the case of B6, the “Half-life, 50° C.” value in [1] is 34 h. The “Activity, 50° C.” value in series [12] was found to be 0.7 U/mg. The T-Optimum in series [10] (Table 2) amounted to 55 °C. Besides, the “I50: Isobutanol concentration which causes loss of 50% activity” value in [4] (40° C.) is listed as 8 (40° C.) % v/v.

Values taken from patent US20150218594A1, “CELL-FREE AND MINIMIZED METABOLIC REACTION CASCADES FOR THE PRODUCTION OF CHEMICALS” (CLARIANT PRODUKTE (DEUTSCHLAND) GMBH, priority 2012, published 2015).
